To fix the notation:
B1: LINE1-full (parent)
chain: UACGUAGGUGGUUUUCCCCUGAUAGUGCUAAGGGGGCCUGGAAGUUUGGACUGGGCAGAGCUCAACACAGCGUGGCAAAGUGGCUGUGGCUAGACUGCCUCUCUGGAUUCCUCGUCACUCAGCAGGGCAUCUCUGAGAGAAAUGCC

In this data set the parent is B1. The data set is described as follows: self-cleavage, relative activity (ratio to wild type); higher = more cleavage; in vitro, sequencing; the parent is a self-cleaving ribozyme.
Consider U15A A138U, for which the self-cleavage was found to be 1.07.
The figure for U15A A138G is 1.45.
In the case of U15A C95U it was 0.41; in that of U15C U62G, 0.15.
In the case of U15C U85A, the self-cleavage stood at 0.1.
In the case of U14C G75A it was 0.82; in that of U15A U62A, 0.04.
Consider U14G U52A, for which the self-cleavage was 1.08.
The figure for U15C C123U is 1.72.
In the case of U15C C116U it was 0.62; in that of U15A U39A, 0.85; in that of U15A A57U, 0.14.
In the case of U15A C128U, the self-cleavage amounted to 0.76.
U14C U47A: the self-cleavage was determined as 1.17.
In the case of U15C C111U it was 1.47; in that of U15C U46G, 1.15.
The figure for U15C U46A is 1.41; for U15A C84U it is 0.08.
The figure for U15G U29C is 1.05; for U15A C110A it is 1.16.
Take U14G A129G: the self-cleavage is 0.84.
The figure for U14G A129U is 0.89; for U15C A42U it is 1.38; for U15C A42G it is 1.43.
As to U14C C37U, the self-cleavage is 0.95.
In the case of U14C C37G it was 0.56.
As for U14C G137A, the self-cleavage was found to be 0.82.
Take U15A A141U: the self-cleavage came to 1.07.
The figure for U15A A141G is 1.35.
In the case of U15A G86A it was 0.07; in that of U15C G126A, 1.41.
Regarding U15C U26C, the self-cleavage stood at 1.33.
The figure for U15C C84G is 0.21; for U14G A78G it is 1.23.
For U14C C76A, the self-cleavage was 1.31.
Turning to U15G U96A, the self-cleavage stood at 0.16.
The figure for U15G U96C is 0.
In the case of U14C A77U it was 1.19.
As for U14C U73G, the self-cleavage stood at 1.05.
The figure for U15C G144U is 1.61; for U15G A31G it is 0.79; for U15C U87C it is 0.33.
In the case of U14G U81A it was 1.91; in that of U15A U47G, 0.
As to U15A U47A, the self-cleavage was 0.76.
In the case of U14C G32A it was 0.99; in that of U15C A24U, 1.08; in that of U15C A24C, 1.84.
The figure for U15C A24G is 1.13; for U14C A65G it is 0.12; for U14C U102A it is 1.67.
The figure for U15C C101G is 1.31; for U15A U26A it is 0.5; for U14C U52G it is 1.51.
Turning to U14C U52C, the self-cleavage worked out at 1.21.
The figure for U14C A117U is 1.3.
Consider U14G A69G, for which the self-cleavage came to 0.42.
In the case of U15C A136G it was 1.52; in that of U15C A136C, 1.99.
In the case of U14G U87C it was 0.41; in that of U14C A57G, 0.89.
With U14C A57C, the self-cleavage was 0.36.
The figure for U15A U100G is 1.07; for U15A U100A it is 0.59; for U15C G41U it is 0.57.
In the case of U15A G44A, the self-cleavage is 1.32.
In the case of U14C G82A it was 1.35.
With U14C G35C, the self-cleavage is 1.46.
The figure for U14C G35U is 1.02; for U14C G35A it is 1.22.
In the case of U15C U100G, the self-cleavage was determined as 1.84.
The figure for U15C U100A is 0.62.
The figure for U15C U115C is 1.68.
The figure for U15A A69G is 0.22; for U14C U109A it is 1.18.
On to U14C U109G, for which the self-cleavage was 0.65.
The figure for U14C G88U is 0.06.
For the variant U15C C90A, the self-cleavage is 0.02.
The figure for U15C C68U is 0.19.
The figure for U14C C99U is 0.75.
In the case of U15A U29A it was 0.38.
On to U15G U108C, for which the self-cleavage was 1.06.
The figure for U14C A140U is 1.22.
For U14C A140G, the self-cleavage stood at 0.87.
The figure for U15A A77C is 0.7; for U15A A65U it is 0.29.
In the case of U14C C28U it was 0.8; in that of U14C C28A, 0.74; in that of U15A G127U, 1.87.
U15C A121G: the self-cleavage turned out to be 1.34.
The figure for U15C A121U is 1.79.
In the case of U14C G40U it was 1.06.
In the case of U14C G40A it was 0.85; in that of U15C G93A, 0.07.
Consider U15C U119A, for which the self-cleavage is 1.5.
As for U14C A136C, the self-cleavage turned out to be 1.36.
In the case of U14C A136G it was 1.45.
In the case of U14C A136U it was 1.42; in that of U15C C51U, 1.26.
In the case of U15A C118U it was 0.49; in that of U15C G54A, 0.74.
For U15C A117C, the self-cleavage was 2.07.
The figure for U15C A117G is 1.83; for U15C G106C it is 1.03; for U15C G106A it is 1.26.
In the case of U15C C131U it was 2.51.
The figure for U15C C131A is 1.74; for U15A U143C it is 1.26; for U15C G80A it is 1.82.
Regarding U14C U81C, the self-cleavage was determined as 1.43.
The figure for U14G A67U is 0.39; for U14C C116U it is 1.14; for U14C U20G it is 0.9.
The figure for U14C U20A is 0.89; for U15C G86A it is 0.06.
The figure for U15A G49A is 0.74; for U15A U73C it is 1.06; for U14G U39C it is 1.25.
With U15A A59G, the self-cleavage was determined as 0.08.
In the case of U14C U108A it was 0.98; in that of U15G U39A, 1.19; in that of U14C A124G, 1.09.
In the case of U14C A124U it was 1.25; in that of U15C U73A, 1.68.
In the case of U15C U73C it was 1.8; in that of U15A C111U, 1.37.
Take U15A U130G: the self-cleavage was determined as 1.09.
In the case of U14C A67C, the self-cleavage was 0.13.
The figure for U14C A67U is 0; for U15A A107U it is 1.06.
The figure for U14C U119C is 1.29.
In the case of U15A G36U it was 1.31.
Regarding U15C G21A, the self-cleavage is 1.11.
In the case of U14G A24G it was 0.79.
Turning to U14C G49U, the self-cleavage worked out at 1.21.
The figure for U15C G60A is 0.04; for U15G A138G it is 0.53.
The figure for U15C G32U is 1.15.
In the case of U14C U112G it was 1.75; in that of U14C U143A, 0.99; in that of U14C U143C, 1.02.
For U14C U143G, the self-cleavage worked out at 1.93.
In the case of U14C A107U it was 1.2; in that of U14C A107G, 1.22.
The figure for U15A A30U is 0.85.
The figure for U14C A142C is 1.87; for U14C U96C it is 0.18; for U15C G34A it is 0.78.
On to U15C G34U, for which the self-cleavage turned out to be 1.65.
In the case of U15A G55C it was 0.15.
For the variant U15A C133U, the self-cleavage is 1.31.
The figure for U14C A129G is 1.02; for U14G U85A it is 0.28.
The figure for U15A U46C is 0.76; for U15A U46A it is 0.71.
In the case of U14C U104A it was 1.04; in that of U15A U115A, 1.07; in that of U15A U23C, 1.17.
Take U15A U23A: the self-cleavage worked out at 0.76.
In the case of U15C G97A it was 0.06; in that of U15A A121U, 1.35; in that of U15A A121C, 0.82.
In the case of U15C G53A it was 1.34; in that of U14C G144A, 1.13; in that of U15A C103A, 1.27.
U14C U91A: the self-cleavage is 0.91.
The figure for U14C G105C is 1.84.

The record behind these values is the RNAGym collection of RNA variant scans (doi:10.7554/elife.90254).
